Data as given in patent US20250250357A1 (NANJING ZAIMING PHARMACEUTICAL, published 2025).

Key:
[1] = target: T1, human MSLN-R1-his protein (human, UniProt Q13421 296-390); assay: ELISA, coated antigen; antibody 0.01 nM
T1 construct: also called human MSLN-R1 protein; hMSLN-R1-his; not shown: His tag

[2] = target: T2, human MSLN-FL-his protein (human, UniProt Q13421 296-580); assay: ELISA, coated antigen; antibody 0.001 nM
T2 construct: also called human MSLN full-length protein; hMSLN-FL-his; not shown: His tag
T2 sequence (Q13421 other isoform, or with tags, fused parts or gaps): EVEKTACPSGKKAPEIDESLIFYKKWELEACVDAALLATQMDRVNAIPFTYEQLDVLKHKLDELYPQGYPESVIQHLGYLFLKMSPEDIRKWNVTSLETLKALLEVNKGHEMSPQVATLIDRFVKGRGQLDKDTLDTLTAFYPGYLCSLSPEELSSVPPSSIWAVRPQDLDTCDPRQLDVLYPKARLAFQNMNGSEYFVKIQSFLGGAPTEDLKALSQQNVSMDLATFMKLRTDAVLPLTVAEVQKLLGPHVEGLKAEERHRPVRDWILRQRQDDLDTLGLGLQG

[3] = target: T3, human MSLN-R2-his protein (human, UniProt Q13421 391-486); assay: ELISA, coated antigen; no antibody (blank, column 'none')
T3 construct: also called human MSLN-R2 protein; hMSLN-R2-his; not shown: His tag
T3 sequence (Q13421 other isoform, or with tags, fused parts or gaps): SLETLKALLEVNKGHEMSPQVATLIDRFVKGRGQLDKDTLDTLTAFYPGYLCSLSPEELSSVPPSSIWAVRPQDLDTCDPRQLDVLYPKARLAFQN

[4] = target: T3, human MSLN-R2-his protein; assay: ELISA, coated antigen; antibody 1 nM
[5] = target: T1, human MSLN-R1-his protein; assay: ELISA, coated antigen; no antibody (blank, column 'none')
[6] = target: T3, human MSLN-R2-his protein; assay: ELISA, coated antigen; antibody 0.001 nM
[7] = target: T3, human MSLN-R2-his protein; assay: ELISA, coated antigen; antibody 100 nM
[8] = target: T3, human MSLN-R2-his protein; assay: ELISA, coated antigen; antibody 0.01 nM
[9] = target: T2, human MSLN-FL-his protein; assay: ELISA, coated antigen; antibody 1 nM
[10] = target: T1, human MSLN-R1-his protein; assay: ELISA, coated antigen; antibody 100 nM
[11] = target: T2, human MSLN-FL-his protein; assay: ELISA, coated antigen; antibody 0.1 nM
[12] = target: T3, human MSLN-R2-his protein; assay: ELISA, coated antigen; antibody 0.1 nM
[13] = target: T1, human MSLN-R1-his protein; assay: ELISA, coated antigen; antibody 0.0001 nM
[14] = target: T2, human MSLN-FL-his protein; assay: ELISA, coated antigen; antibody 0.0001 nM
[15] = target: T1, human MSLN-R1-his protein; assay: ELISA, coated antigen; antibody 10 nM
[16] = target: T2, human MSLN-FL-his protein; assay: ELISA, coated antigen; no antibody (blank, column 'none')
[17] = target: T3, human MSLN-R2-his protein; assay: ELISA, coated antigen; antibody 10 nM
[18] = target: T2, human MSLN-FL-his protein; assay: ELISA, coated antigen; antibody 100 nM
[19] = target: T1, human MSLN-R1-his protein; assay: ELISA, coated antigen; antibody 1 nM
[20] = target: T3, human MSLN-R2-his protein; assay: ELISA, coated antigen; antibody 0.0001 nM
[21] = target: T2, human MSLN-FL-his protein; assay: ELISA, coated antigen; antibody 10 nM
[22] = target: T1, human MSLN-R1-his protein; assay: ELISA, coated antigen; antibody 0.001 nM
[23] = target: T2, human MSLN-FL-his protein; assay: ELISA, coated antigen; antibody 0.01 nM
[24] = target: T1, human MSLN-R1-his protein; assay: ELISA, coated antigen; antibody 0.1 nM
[25] = target: T4, monkey MSLN on HEK293T-monkey MSLN recombinant cells (monkey); assay: FACS, HEK293T-monkey MSLN cells
T4 construct: Full-length precursor as transfected; processing on the cell is not described; also called HEK293-monkey MSLN
T4 chain: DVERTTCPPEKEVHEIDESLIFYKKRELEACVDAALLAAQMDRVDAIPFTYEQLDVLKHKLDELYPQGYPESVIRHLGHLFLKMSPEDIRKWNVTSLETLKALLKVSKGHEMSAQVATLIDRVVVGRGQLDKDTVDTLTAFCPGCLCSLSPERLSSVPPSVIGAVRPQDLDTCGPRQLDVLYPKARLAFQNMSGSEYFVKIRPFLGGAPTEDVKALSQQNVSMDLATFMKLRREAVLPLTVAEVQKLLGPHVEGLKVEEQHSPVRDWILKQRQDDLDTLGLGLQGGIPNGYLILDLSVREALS

[26] = target: T5, human MSLN-R3 on HEK293T-hMSLN-R3 recombinant cells (human, UniProt Q13421 487-606); assay: FACS, HEK293T-hMSLN-R3 cells
T5 construct: the C-terminal limit is uncertain; also called human MSLN-R3 membrane protein
T5 sequence (Q13421 495-614): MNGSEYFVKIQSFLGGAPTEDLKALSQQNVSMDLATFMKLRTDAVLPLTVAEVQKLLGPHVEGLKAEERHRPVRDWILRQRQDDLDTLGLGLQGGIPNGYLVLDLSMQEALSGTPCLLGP

[27] = target: human MSLN on OVCAR3 tumor cells (human, UniProt Q13421 296-598); assay: FACS, OVCAR3 cells
human MSLN on OVCAR3 tumor cells, sequence (Q13421 other isoform, or with tags, fused parts or gaps): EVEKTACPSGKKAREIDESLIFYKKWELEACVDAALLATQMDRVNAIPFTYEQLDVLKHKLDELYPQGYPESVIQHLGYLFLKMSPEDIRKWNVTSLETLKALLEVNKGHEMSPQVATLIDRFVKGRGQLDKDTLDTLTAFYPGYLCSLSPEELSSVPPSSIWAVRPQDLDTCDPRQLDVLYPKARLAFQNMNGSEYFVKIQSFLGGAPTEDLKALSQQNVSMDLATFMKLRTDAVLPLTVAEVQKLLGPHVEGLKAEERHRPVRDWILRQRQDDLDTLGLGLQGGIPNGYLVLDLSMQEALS

T1 sequence (Q13421 other isoform, or with tags, fused parts or gaps): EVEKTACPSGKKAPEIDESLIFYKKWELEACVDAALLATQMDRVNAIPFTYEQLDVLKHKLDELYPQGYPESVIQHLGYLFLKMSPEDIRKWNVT

B1: S009-F6-76.1 (antibody, human IgG1, kappa, V domains shown)
VH: QVQLQQSGPELVKPGASVKISCKASGYTFTDYYINWVKQRPGQGLEWIGWIFPGRGSTFYYEKFKGKATLTVDKSSSTAYMLLSSLTSEDSAVYFCARRGDSAGYEDLDYWGQGTSVTVSS
VL: NIVMTQSPKFMSMSVGERVTLSCKASENVVTYVSWYQQKPKQSPKLLIYGASKRYTGVPDRFTGSGSATDFTLTISSVQAEDLGDYHCGQSYSYPYTFGGGTKLEIKR
notes: Human-murine chimeric antibody, human IgG1/kappa constant regions
Binder B1 has an OD450 [1] of 0.04 OD450, an OD450 [2] of 0.29 OD450 and an OD450 [3] of 0.05 OD450. It also gave an OD450 [4] of 0.12 OD450, an OD450 [5] of 0.04 OD450 and an OD450 [6] of 0.04 OD450. It also gave an OD450 [7] of 0.33 OD450, an OD450 [8] of 0.04 OD450 and an OD450 [9] of 2.87 OD450. For the same binder, the OD450 [10] was 0.06 OD450, the OD450 [11] was 2.4 OD450 and the OD450 [12] was 0.07 OD450. For the same binder, the OD450 [13] was 0.04 OD450, the OD450 [14] was 0.1 OD450 and the OD450 [15] was 0.04 OD450. For the same binder, the OD450 [16] was 0.05 OD450, the OD450 [17] was 0.2 OD450 and the OD450 [18] was 2.83 OD450. The OD450 [19] was 0.04 OD450, the OD450 [20] was 0.05 OD450 and the OD450 [21] was 2.87 OD450. The OD450 [22] was 0.04 OD450, the OD450 [23] was 1.09 OD450 and the OD450 [24] was 0.04 OD450.

B2: F7.44.20-VL-VH (scFv)
chain: QIVLTQSPALMSASPGEKVTLTCSASSSVISSYLSWYQQKPGSSPKLLIYRTSNLASGVPARFSGSGSGTSYSLTISSMEAEDAASYFCHQWSSFPYTFGGGTKLEIKGGGGSGGGGSGGGGSEVQLQQSGPELVKPGASVKIPCKASGYTFTDYNMDWVKQSHGKSLEWIGDINPSTGGTIYNQKFNGKATLTEDKSASTVYMEFRSLTSDDTAVYYCARRRIGTGYFDVWGTGTTVTVSS
B2 showed an EC50 [25] of 2.97 nM, a Maximum_MFI [25] of 11100 MFI and an EC50 [26] of 0.48 nM. The Maximum_MFI [26] was 1850 MFI, the EC50 [27] was 1.09 nM and the Maximum_MFI [27] was 2920 MFI.

B3: F7.44.20 (scFv)
chain: EVQLQQSGPELVKPGASVKIPCKASGYTFTDYNMDWVKQSHGKSLEWIGDINPSTGGTIYNQKFNGKATLTEDKSASTVYMEFRSLTSDDTAVYYCARRRIGTGYFDVWGTGTTVTVSSGGGGSGGGGSGGGGSQIVLTQSPALMSASPGEKVTLTCSASSSVISSYLSWYQQKPGSSPKLLIYRTSNLASGVPARFSGSGSGTSYSLTISSMEAEDAASYFCHQWSSFPYTFGGGTKLEIK
For B3, the EC50 [25] was 8.38 nM, the Maximum_MFI [25] was 7040 MFI and the EC50 [26] was 1.27 nM. It also gave a Maximum_MFI [26] of 1450 MFI, an EC50 [27] of 2.42 nM and a Maximum_MFI [27] of 1600 MFI.
